Measured values published in patent publication US7138248B2, “Method of inhibiting inward rectifier, G-protein activated, mammalian, potassium channels and uses thereof” (California Institute of Technology, priority 1993, dated 2006).
Entries after “also recorded” stand apart in the source; their conditions may differ.

What was measured:
[1] = target: T1, atrial inward rectifier K+ (KG) channel (Rattus norvegicus, UniProt P48548+P63251); assay: Two-electrode voltage clamp of the transmitter-evoked inward current (I5HT) in oocytes injected with atrial RNA + 5HT1A-R RNA; assay type: cell-based
T1 construct: is expressed in oocytes injected with atrial RNA; expressed in transfected cells; host or cells: Xenopus laevis oocytes injected with rat atrial total or poly(A) RNA plus 5HT1A receptor cRNA
T1 sequence (P63251 1-501): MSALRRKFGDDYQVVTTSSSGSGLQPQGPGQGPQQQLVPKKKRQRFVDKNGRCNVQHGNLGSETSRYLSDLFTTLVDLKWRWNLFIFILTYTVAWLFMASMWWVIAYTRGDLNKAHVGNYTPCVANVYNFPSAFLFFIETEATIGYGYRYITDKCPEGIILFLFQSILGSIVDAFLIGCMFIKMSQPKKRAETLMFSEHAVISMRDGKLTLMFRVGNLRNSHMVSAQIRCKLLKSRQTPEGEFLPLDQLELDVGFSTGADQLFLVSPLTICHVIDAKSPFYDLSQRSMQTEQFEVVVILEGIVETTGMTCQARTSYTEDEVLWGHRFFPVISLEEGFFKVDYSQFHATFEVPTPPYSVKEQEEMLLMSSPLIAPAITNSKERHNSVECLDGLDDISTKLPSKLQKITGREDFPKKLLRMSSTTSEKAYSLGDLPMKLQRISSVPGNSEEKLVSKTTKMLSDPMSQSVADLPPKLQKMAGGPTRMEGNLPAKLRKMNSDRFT
T1 sequence (P48548 1-419): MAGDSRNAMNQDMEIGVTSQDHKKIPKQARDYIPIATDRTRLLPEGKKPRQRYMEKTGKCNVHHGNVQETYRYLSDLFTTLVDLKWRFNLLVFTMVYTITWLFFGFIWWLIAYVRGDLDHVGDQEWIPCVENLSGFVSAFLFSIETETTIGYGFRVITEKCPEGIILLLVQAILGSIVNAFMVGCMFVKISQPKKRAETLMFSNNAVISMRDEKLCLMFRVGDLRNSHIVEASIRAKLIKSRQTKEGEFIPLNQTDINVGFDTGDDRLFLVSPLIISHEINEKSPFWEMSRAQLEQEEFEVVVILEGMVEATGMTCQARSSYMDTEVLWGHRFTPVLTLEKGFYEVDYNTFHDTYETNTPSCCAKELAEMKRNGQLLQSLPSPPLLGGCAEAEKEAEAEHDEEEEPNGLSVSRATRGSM
Method: Solutions containing intermediate concentrations of K^+ were made by substituting K^+ for Na^+. Solution exchange and drug application were done by superfusing the cell placed in a 0.5 ml chamber. […] Stimulation, data acquisition, and analysis were performed using pCLAMP software (Axon Instruments, Foster City, Calif.).

[2] = tested on: Xenopus laevis oocytes; assay: Membrane (resting) current of oocytes in normal ND96 solution, two-electrode voltage clamp; assay type: cell-based
Method: Preparation of RNA and oocytes. Total RNA was extracted from atria and ventricles of 19–21 day old rats of both sexes using the procedure of Chomczinski and Sacchi (1987) Anal. Biochem. 162:156–159. Poly (A) RNA was separated on an oligo-dT cellulose column (type 3, Collaborative Biochemical Products). Ventricle poly(A) RNA was fractionated by centrifugation (18 h, 30,000 g, 4° C.) on a linear 5%–25% sucrose gradient. Xenopus laevis oocytes were prepared as previously described (Dascal & Lotan (1992) in Methods in Molecular Biology, v. 13: Protocols in Molecular Neurobiology, eds. Longstaff & Revest). and injected with either 50–120 ng/oocyte poly(A) RNA, 120–200 ng/oocyte total RNA, or 35 ng/oocyte fractionated poly(A) RNA. In most cases, 5HT1A-R RNA (5–20 ng/oocyte) was co-injected with atrial or ventricle RNA. Final volume of the injected RNA solution was 50 nl. The oocytes were incubated for 3–7 days in the NDE solution (ND96 (see below) containing 1.8 Mm CaCl2 and supplemented with 2.5 Mm Na-pyruvate and 50 μg/ml gentamicin). Occasionally, either 2.5–5% heat-inactivated horse serum or 0.5 mM theophylline were added to the NDE solution. […]

[3] = tested on: native oocytes
Method: Electrophysiological recordings were performed using the two electrode voltage clamp method with the Dagan 8500 amplifier (Dagan Instruments, Minneapolis) as described (Dascal et al. (1986) Mol. Brain Res. 1:201–209). […]

[4] = tested on: Kir3.1+2; assay: ACh-induced inward current (m2R activation) in oocytes coinjected with Kir3.1 and Kir3.2 cRNAs; assay type: cell-based, rat Kir3.1, mouse Kir3.2; details: 1 μM ACh, 0.5 ng each cRNA per oocyte, mean±SEM, n=5
Excerpt: (§1) Plasmids and DNAS. To isolate Kir3.2 and Kir3.3 from mouse brain RNA, oligonucleotides were designed that anneal to the first assigned methionine codon and the assigned stop codon of mouse Kir3.2 and Kir3.3 (Lesage et al (1994) FEBS Lett. 353:37–42). Kir3.0-specific sequences were coupled to a 5′-end untranslated sequence from alfalfa mosaic virus (Jobling and Gehrke (1987) Nature 325:622–625) and a T7 RNA polymerase recognition site to confer an optimal translational initiation site and allow RNA synthesis […] (cRNA). At the 3′ end, a poly(A) tail was added to confer RNA stability. Total RNA from adult mouse brain (purchased from Clontech) was used as template for cDNA synthesis (Sambrook et al., supra.). PCR was conducted in a thermal cycler (Perkin-Elmer) by using Vent Polymerase (New England Biolabs), which minimizes misincorporations during the amplification step. Kir3.2 and Kir3.3 PCR-derived sequences were then inserted into the pNoTA vector (5 Prime→3 Primer, Inc.) for subsequent sequence analysis. […]
(§2) Electrophysiology. Whole-cell currents from oocytes were measured by using an Axoclamp 2A or Geneclamp 500 amplifier (Axon Instruments, Foster City, Calif.) in the two-electrode, voltage-clamp configuration. […]

[5] = tested on: Kir3.2; assay: ACh-induced inward current (m2R activation) in oocytes injected with Kir3.2 cRNA; assay type: cell-based, mouse; details: 1 μM ACh, 1 ng cRNA, n=7
Excerpt: as §1, §2

[6] = tested on: Kir3.1; assay: ACh-induced inward current (m2R activation) in oocytes injected with Kir3.1 cRNA; assay type: cell-based, rat; details: 1 μM ACh, 1 ng cRNA, n=5
Excerpt: as §1, §2

[7] = tested on: constitutively active inward rectifier K+ channel(s) (IhK); assay: Two-electrode voltage clamp of the high-K+-evoked inward current (IhK) in oocytes; assay type: cell-based, Xenopus laevis
Method: Preparation of RNA and oocytes. Total RNA was extracted from atria and ventricles of 19–21 day old rats of both sexes using the procedure of Chomczinski and Sacchi (1987) Anal. Biochem. 162:156–159. Poly (A) RNA was separated on an oligo-dT cellulose column (type 3, Collaborative Biochemical Products). Ventricle poly(A) RNA was fractionated by centrifugation (18 h, 30,000 g, 4° C.) on a linear 5%–25% sucrose gradient. Xenopus laevis oocytes were prepared as previously described (Dascal & Lotan (1992) in Methods in Molecular Biology, v. 13: Protocols in Molecular Neurobiology, eds. Longstaff & Revest). and injected with either 50–120 ng/oocyte poly(A) RNA, 120–200 ng/oocyte total RNA, or 35 ng/oocyte fractionated poly(A) RNA. In most cases, 5HT1A-R RNA (5–20 ng/oocyte) was co-injected with atrial or ventricle RNA. Final volume of the injected RNA solution was 50 nl. The oocytes were incubated for 3–7 days in the NDE solution (ND96 (see below) containing 1.8 Mm CaCl2 and supplemented with 2.5 Mm Na-pyruvate and 50 μg/ml gentamicin). Occasionally, either 2.5–5% heat-inactivated horse serum or 0.5 mM theophylline were added to the NDE solution. Incubation of oocytes in pertussis toxin (PTX; List Biochemicals) was done in NDE solution without the addition of pyruvate, serum or theophylline. cDNAs of 5HT1A receptor (Karschin et al. (1991) P.N.A.S. 88:5694–5698) and Gi2a (a gift from M. I. Simon, Caltech) in pBluescript were linearized, and RNA was synthesized in vitro as described (Dascal and Lotan, supra.).
Electrophysiological recordings were performed using the two electrode voltage clamp method with the Dagan 8500 amplifier (Dagan Instruments, Minneapolis) as described (Dascal et al. (1986) Mol. Brain Res. 1:201–209). The oocytes were usually kept in the ND96 solution: 96 mM NaCl/2 mM KC1/1 mM MgCl2/1 mM CaCl2/5 mM Hepes, pH=7.5. Most measurements were done in the high K^+ solution (hK): 96 mM KCl/2 mM NaCl/1 mM MgCl2/1 mM CaCl2/5 mM Hepes, pH=7.5. Solutions containing intermediate concentrations of K^+ were made by substituting K^+ for Na^+. Solution exchange and drug application were done by superfusing the cell placed in a 0.5 ml chamber. GDP-β-S (trilithium salt; Sigma) was injected by pressure (Dascal et al. supra.). Stimulation, data acquisition, and analysis were performed using pCLAMP software (Axon Instruments, Foster City, Calif.).

[8] = target: Kir3.1 (Kir3.1/KGA), inward rectifier G-protein activated potassium channel polypeptide cloned from cardiac atrium (rat) (UniProt P63251); assay: cell-based or functional assay
[9] = target: Kir3.2, isolated by PCR from mouse brain RNA (mouse) (UniProt P48542); assay: cell-based or functional assay
Kir3.2, isolated by PCR from mouse brain RNA (mouse), sequence (P48542 whole entry): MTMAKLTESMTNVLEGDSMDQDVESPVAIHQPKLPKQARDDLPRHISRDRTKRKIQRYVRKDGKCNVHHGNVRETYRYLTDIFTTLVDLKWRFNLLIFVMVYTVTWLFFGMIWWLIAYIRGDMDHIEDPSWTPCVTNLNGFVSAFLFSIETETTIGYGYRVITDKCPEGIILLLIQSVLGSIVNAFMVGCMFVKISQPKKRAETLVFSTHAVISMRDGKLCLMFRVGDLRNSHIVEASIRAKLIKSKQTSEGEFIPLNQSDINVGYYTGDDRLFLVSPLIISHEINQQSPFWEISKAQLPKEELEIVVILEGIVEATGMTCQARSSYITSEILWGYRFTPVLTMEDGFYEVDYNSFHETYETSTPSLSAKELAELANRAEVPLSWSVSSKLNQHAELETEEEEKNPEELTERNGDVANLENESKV

[10] = target: serotonin 5HT1A receptor (5HT1A-R); assay: cell-based or functional assay
[11] = 400–800 pmole/oocyte injected, 4 cells
[12] = RNA-injected oocytes without Gi2α RNA, 500 ng/ml, 20–26 h

In the case of `NCCc1c[nH]c2ccc(O)cc12` [5HT, serotonin], the EC50 [1] is reported as roughly 0.015 µM, the “inward current induced by the transmitter in hK solution” value ([1]; RNA-injected oocytes of one frog, n=6) is reported as 1102±84 nA and the “saturation of the I5HT dose-response curve” value ([1]; hK solution, FIG. 1C) is reported as “about 100 nM”. The “I5HT, inward current evoked by 5HT” value ([1]; oocytes injected with Atrial + 5HT1A-R RNA, -80 mV, hK solution, 5HT 100 nM to 2 μM, mean±SEM (n)) was 290 ± 43 (55) nA, the “change in membrane current in ND96 bath solution” value ([2]; RNA-injected oocytes, 4 to 5 days after injection, 10 μM ACh or 1–2 μM 5HT) was “did not cause any significant change” and the “effect of 5HT on current” value [3] was “no effect”.
`CC(=O)OCC[N+](C)(C)C` [ACh, acetylcholine] was tested, and the “inward currents induced by ACh (IK,ACh)” value [4] was −6.4±0.8 μA, the “inward currents induced by ACh (IK,ACh)” value [5] was −698±98 nA and the “inward currents induced by ACh (IK,ACh)” value [6] was −365±45 nA.
`[Ba+2]` [Ba^2+] was tested, and the “block of I5HT” value ([1]; 300 μM, hK solution, FIG. 3B) was “almost completely blocks; also recorded: almost completely abolished”, the IC50 ([1]; hK solution, -80 mV, FIG. 3D, read-out: IC50 (half-inhibition concentration) for block of I5HT) was roughly 15 µM and the “block of IhK” value ([7]; 300 μM, hK solution) was “about 20%”. For the same compound, the IC50 ([7]; hK solution, -80 mV, FIG. 3D, read-out: IC50 for IhK block) was greater than 3000 µM and the “change in resting current or conductance in normal ND96” value ([2]; 5 μM-3 mM, native or RNA-injected oocytes, holding potential -80 mV) was “did not cause any significant changes”.
With `Nc1nc2c(ncn2[C@@H]2O[C@H](COP(=O)(O)OP(O)(O)=S)[C@@H](O)[C@H]2O)c(=O)[nH]1` [GDP-β-S] the “I5HT after injection, % of control” value [1, 11] was 4±1 % of control and the “IhK after injection, % of control” value [7, 11] was 115±8 % of control.
With G protein subunits Gβ1 and Gγ2 (Gβ1γ2) the inward K+ current (IK) in high-K+ solution, Kir3.1 alone with Gβ1γ2 [8] was -104 nA, the inward K+ current (IK), Kir3.1 alone (control of the Kir3.1+3 experiment) [8] was -481 nA and the Gβγ-induced, inwardly rectifying currents in oocytes injected with Kir3.2 cRNA alone (1 ng per oocyte) [9] was -5.1 µA. It also gave an inward K+ current (IK) in high-K+ solution, Kir3.2 alone with Gβ1γ2 [9] of -305 nA.
In the case of “Gi2α, PTX-sensitive α subunit of a G-protein”, the PTX inhibition of I5HT in oocytes injected with atrial RNA plus cRNAs encoding 5HT1A-R and Gi2α [10] is reported as 50%.
In the case of “Kir3.2, isolated by PCR from mouse brain RNA (from UniProt P48542 1-425)”, the fold increase of IK of Kir3.1+2 over Kir3.1 alone (with Gβ1γ2) [8] is reported as 40 fold, the fold increase of IK of Kir3.1+2 over Kir3.2 alone (with Gβ1γ2) [8] is reported as 14 fold and the fold increase of the ACh-induced current of Kir3.1+2 over Kir3.1 alone [8] is reported as 17 fold. For the same compound, the fold increase of the ACh-induced current of Kir3.1+2 over Kir3.2 alone [8] was 9 fold, the fold increase of the major open-time component of Kir3.1+2 against Kir3.2 alone [8] was 7 fold and the inward K+ current (IK) in high-K+ solution, Kir3.1+2 coexpressed with Gβ1γ2 [8] was -4.3 µA. The inward currents induced by ACh (IK,ACh), Kir3.1+2 coexpressed with m2R, 1 µM ACh [8] was -6.4 µA, the major component of single-channel open-time duration, Kir3.1+2 [8] was 3.5 ms and the time constant of the slower activation component at -80 mV, Kir3.1+2 coexpressed [8] was 213 ms.
Compound “Kir3.3, isolated by PCR from mouse brain RNA (from UniProt P48543 1-393)” has a fold increase of IK of Kir3.1+3 over Kir3.1 alone [8] of 7 fold, an inward K+ current (IK), Kir3.1 and Kir3.3 coexpressed (Kir3.1+3) [8] of -3.4 µA and a Gβγ-induced, inwardly rectifying currents in oocytes coinjected with Kir3.2 and Kir3.3 cRNAs (0.5 ng each per oocyte) [9] of -129 nA.
pertussis toxin [PTX] was tested, and the “effect of treatment on I5HT” value [1, 12] was “not affected”, the “inhibition of I5HT” value ([1]; oocytes injected with atrial RNA plus cRNAs encoding 5HT1A-R and Gi2α, P<0.01) was “about 50%” and the “effect of treatment on IhK” value [7, 12] was “not affected”. The “effect on IhK” value ([7]; oocytes injected with atrial RNA plus cRNAs encoding 5HT1A-R and Gi2α) was “unaffected”.
